The record followed here is patent publication US20040072266A1, “Method of modifying cell motility via compounds and polypeptides that interact with a Wnt pathway” (priority 2002, published 2004).

This assay deals with NIH3T3 cells. Nature of the assay: Wnt conditioned media treatment of NIH3T3 cells, phalloidin actin staining, protrusion/filopodia count. The format is cell-based, mouse. Particulars: NIH3T3 cells on fibronectin treated cover slips, 15 minutes in conditioned media, Alexa568 phalloidin staining. The procedure: FIG. 1: Wnt treatment increases the protrusive activity of NIH3T3 cells. NIH3T3 cells were plated at low density on fibronectin treated cover slips. After being allowed to re-attach for 12 hours, cells were placed into media that was pre-conditioned either by control 293T cells (A), 293T cells expressing Wnt1 (B) or 293T cells expressing Wnt5a (C and D). After 15 minutes in conditioned media, cells were fixed and stained with Alexa568 conjugated phalloidin to label the actin cyto-skeleton. Wnt treated cells contained higher numbers of actin based protrusions relative to control. These included filopodia (arrows in B and C) as well as membrane ruffles (arrows in D). E. The number of filopodia per cell was counted for NIH3T3 cells treated as described above. […] Columns represent the average number of filopodia per cell. N=50, 80, 76 cells for control, Wnt1 and Wnt5a, respectively. Error bars represent the standard error of the mean for each group shown.
We can use Wnt conditioned media as a source of Wnt polypeptides and fragments of them in testing the ability of a cell to modify its cell motility characteristics. […]
In FIG. 1, we show the […] after the Wnt treatment. […] The degree of motility can be measured through the number of filopodia, for example, or through assyas that measure the levels or increases in cytoskeletal proteins. […]

B1: Wnt5a: Wnt polypeptide supplied as media pre-conditioned by 293T cells expressing Wnt5a (mouse Wnt 5A per b63) (protein, UniProt P22725 62-380, looked up)
Protein Wnt-5a: IIGAQPLCSQLAGLSQGQKKLCHLYQDHMQYIGEGAKTGIKECQYQFRHRRWNCSTVDNTSVFGRVMQIGSRETAFTYAVSAAGVVNAMSRACREGELSTCGCSRAARPKDLPRDWLWGGCGDNIDYGYRFAKEFVDARERERIHAKGSYESARILMNLHNNEAGRRTVYNLADVACKCHGVSGSCSLKTCWLQLADFRKVGDALKEKYDSAAAMRLNSRGKLVQVNSRFNSPTTQDLVYIDPSPDYCVRNESTGSLGTQGRLCNKTSEGMDGCELMCCGRGYDQFKTVQTERCHCKFHWCCYVKCKKCTEIVDQFVCK
modifications: conditioned medium from 293T cells
As to B1, the “number of filopodia per cell relative to control” value is given as “significant increase”.

B2: Wnt1: Wnt polypeptide supplied as media pre-conditioned by 293T cells expressing Wnt1 (mouse Wnt 1 per b63) (protein, UniProt P04426 28-370, looked up)
Proto-oncogene Wnt-1: ANSSGRWWGIVNIASSTNLLTDSKSLQLVLEPSLQLLSRKQRRLIRQNPGILHSVSGGLQSAVRECKWQFRNRRWNCPTAPGPHLFGKIVNRGCRETAFIFAITSAGVTHSVARSCSEGSIESCTCDYRRRGPGGPDWHWGGCSDNIDFGRLFGREFVDSGEKGRDLRFLMNLHNNEAGRTTVFSEMRQECKCHGMSGSCTVRTCWMRLPTLRAVGDVLRDRFDGASRVLYGNRGSNRASRAELLRLEPEDPAHKPPSPHDLVYFEKSPNFCTYSGRLGTAGTAGRACNSSSPALDGCELLCCGRGHRTRTQRVTERCNCTFHWCCHVSCRNCTHTRVLHECL
modifications: conditioned medium from 293T cells
With B2, the “number of filopodia per cell relative to control” value is recorded as “significant increase”.
